The supplement of paper PMC11246515
± gives the standard deviation of the averaged measurements.

Assay: total protein half-life in vivo (active degradation + dilution); higher = more stable protein
[1] = E. coli NCM3722 delta-clpP delta-lon delta-hslV, growth: N-lim chemostat, doubling time 6 h
[2] = E. coli NCM3722 delta-clpP, growth: N-lim chemostat, doubling time 6 h
[3] = E. coli NCM3722 delta-hslV, growth: N-lim chemostat, doubling time 6 h
[4] = E. coli NCM3722 delta-lon, growth: N-lim chemostat, doubling time 6 h
[5] = E. coli NCM3722 delta-smpB, growth: N-lim chemostat, doubling time 6 h
[6] = wild type E. coli NCM3722, growth: C-lim chemostat, doubling time 3 h
[7] = wild type E. coli NCM3722, growth: C-lim chemostat, doubling time 6 h
[8] = wild type E. coli NCM3722, growth: C-lim chemostat, doubling time 12 h
[9] = wild type E. coli NCM3722, growth: N-lim chemostat, doubling time 6 h
[10] = wild type E. coli NCM3722, growth: N-lim chemostat, doubling time 12 h
[11] = wild type E. coli NCM3722, growth: P-lim chemostat, doubling time 6 h
[12] = wild type E. coli NCM3722, growth: P-lim chemostat, doubling time 12 h

Sequence | total protein half-life in vivo [1] [h] | total protein half-life in vivo [2] [h] | total protein half-life in vivo [3] [h] | total protein half-life in vivo [4] [h] | total protein half-life in vivo [5] [h] | total protein half-life in vivo [6] [h] | total protein half-life in vivo [7] [h] | total protein half-life in vivo [8] [h] | total protein half-life in vivo [9] [h] | total protein half-life in vivo [10] [h] | total protein half-life in vivo [11] [h] | total protein half-life in vivo [12] [h]
MSRPRRRGRDINGVLLLDKPQGMSSNDALQKVKRIYNANRAGHTGALDPLATGMLPICLGEATKFSQYLLDSDKRYRVIARLGQRTDTSDADGQIVEERPVTFSAEQLAAALDTFRGDIEQIPSMYSALKYQGKKLYEYARQGIEVPREARPITVYELLFIRHEGNELELEIHCSKGTYIRTIIDDLGEKLGCGAHVIYLRRLAVSKYPVERMVTLEHLRELVEQAEQQDIPAAELLDPLLMPMDSPASDYPVVNLPLTSSVYFKNGNPVRTSGAPLEGLVRVTEGENGKFIGMGEIDDEGRVAPRRLVVEYPA | 5.81 ± 0.72 | 4.93 ± 0.41 | 4.51 ± 0.27 | 4.83 ± 0.34 | 4.29 ± 0.17 | 3.06 ± 0.59 | 5.2 ± 0.55 | 9.72 ± 0.41 | 4.89 ± 0.18 | 7.6476 ± 0.0051 | 5.59 ± 0.17 | 12.2 ± 2.5
MSRRVATITLNPAYDLVGFCPEIERGEVNLVKTTGLHAAGKGINVAKVLKDLGIDVTVGGFLGKDNQDGFQQLFSELGIANRFQVVQGRTRINVKLTEKDGEVTDFNFSGFEVTPADWERFVTDSLSWLGQFDMVCVSGSLPSGVSPEAFTDWMTRLRSQCPCIIFDSSREALVAGLKAAPWLVKPNRRELEIWAGRKLPEMKDVIEAAHALREQGIAHVVISLGAEGALWVNASGEWIAKPPSVDVVSTVGAGDSMVGGLIYGLLMRESSEHTLRLATAVAALAVSQSNVGITDRPQLAAMMARVDLQPFN [P0AEW9] | 5.41 ± 0.1 | 6.29 ± 0.82 | 6.11 ± 0.88 | 5.57 ± 1.3 | 5.34 ± 0.068 | 3.11 ± 0.06 | 7.05 ± 0.084 | 12.2 ± 0.77 | 5.61 ± 0.2 | 10.74 ± 0.098 | 6.22 ± 0.24 | 13.5 ± 2.4
MSRSLLTNETSELDLLDQRPFDQTDFDILKSYEAVVDGLAMLIGSHCEIVLHSLQDLKCSAIRIANGEHTGRKIGSPITDLALRMLHDMTGADSSVSKCYFTRAKSGVLMKSLTIAIRNREQRVIGLLCINMNLDVPFSQIMSTFVPPETPDVGSSVNFASSVEDLVTQTLEFTIEEVNADRNVSNNAKNRQIVLNLYEKGIFDIKDAINQVADRLNISKHTVYLYIRQFKSGDFQGQDK | 6.19 ± 0.97 | 4.65 ± 0.54 | 3.52 ± 0.076 | 3.21 ± 0.28 | 3.38 ± 0.41 | 2.482 ± 0.004 | 4.69 ± 1.3 | 6.93 ± 0.81 | 3.36 ± 0.46 | 4.95 ± 1.1 | 3.94 ± 0.15 | 6.94 ± 0.43
MSRSQNLRHNVINQVIDDMARGHIPSPLPSQSALAEMYNISRTTVRHILSHLRECGVLTQVGNDYVIARKPDHDDGFACTTASMSEQNKVFEQAFFTMINQRQLRPGETFSELQLARAAGVSPVVVREYLLKFGRYNLIHSEKRGQWSMKQFDQSYAEQLFELREMLETHSLQHFLNLPDHDPRWLQAKTMLERHRLLRDNIGNSFRMFSQLDRDFHSLLLSAADNIFFDQSLEIISVIFHFHYQWDESDLKQRNIIAVDEHMTILSALICRSDLDATLALRNHLNSAKQSMIRSINENTRYAH | – | – | – | – | – | 0.713 | 1.15 | – | – | – | – | –
MSRTIFCTFLQREAEGQDFQLYPGELGKRIYNEISKEAWAQWQHKQTMLINEKKLNMMNAEHRKLLEQEMVNFLFEGKEVHIEGYTPEDKK [P0A8P3] | 6.2 ± 0.24 | 4.957 ± 0.0071 | 4.94 ± 1.4 | 5.01 ± 0.2 | 3.99 ± 0.37 | 3.07 ± 0.31 | 5.14 ± 0.14 | 8.58 ± 1.5 | 3.63 ± 0.074 | 6.39 ± 0.51 | 5.7 | 9.27 ± 1.4
MSRTTTVDGAPASDTDKQSISQPNQFIKRGTPQFMRVTLALFSAGLATFALLYCVQPILPVLSQEFGLTPANSSISLSISTAMLAIGLLFTGPLSDAIGRKPVMVTALLLASICTLLSTMMTSWHGILIMRALIGLSLSGVAAVGMTYLSEEIHPSFVAFSMGLYISGNSIGGMSGRLISGVFTDFFNWRIALAAIGCFALASALMFWKILPESRHFRPTSLRPKTLFINFRLHWRDRGLPLLFAEGFLLMGSFVTLFNYIGYRLMLSPWHVSQAVVGLLSLAYLTGTWSSPKAGTMTTRYGRGPVMLFSTGVMLFGLLMTLFSSLWLIFAGMLLFSAGFFAAHSVASSWIGPRAKRAKGQASSLYLFSYYLGSSIAGTLGGVFWHNYGWNGVGAFIALMLVIALLVGTRLHRRLHA | 1.3 | 1.36 ± 0.35 | 1.46 ± 0.017 | 1.1 ± 0.07 | 2.24 ± 0.1 | – | – | – | 1.42 ± 0.079 | 2.65 ± 0.55 | – | 2.5
MSRVNPLSSLSLLAVLVLAGCSSQAPQPLKKGEKAIDVASVVRQKMPASVKDRDAWAKDLATTFESQGLAPTLENVCSVLAVAQQESNYQADPAVPGLSKIAWQEIDRRAERMHIPAFLVHTALKIKSPNGKSYSERLDSVRTEKQLSAIFDDLINMVPMGQTLFGSLNPVRTGGPMQVSIAFAEQHTKGYPWKMDGTVRQEVFSRRGGLWFGTYHLLNYPASYSAPIYRFADFNAGWYASRNAAFQNAVSKASGVKLALDGDLIRYDSKEPGKTELATRKLAAKLGMSDSEIRRQLEKGDSFSFEETALYKKVYQLAETKTGKSLPREMLPGIQLESPKITRNLTTAWFAKRVDERRARCMKQ | 6.06 ± 0.21 | – | – | – | 5.8 ± 0.24 | 3.28 ± 0.2 | 6.11 ± 0.086 | 11.2 ± 0.54 | 6.93 ± 0.84 | 12.9 ± 0.39 | 6.11 ± 0.4 | 12.4 ± 0.53
MSRVTAIISALIICIIVSLSWAVNHYRDNAIAYKVQRDKNARELKLANAAITDMQMRQRDVAALDAKYTKELADAKAENDALRDDVAAGRRRLHIKAVCQSVREATTASGVDNAASPRLADTAERDYFTLRERLITMQKQLEGTQKYINEQCR | – | – | – | – | – | – | – | 3.49 | – | – | – | 6.44
